Laboratory results taken from patent US20220267422A1.

Target: doppel (Prnd) recombinant protein immobilized on the SPR sensor chip
Test: SPR, BIAcore T100, recombinant protein immobilized on chip

Chain of doppel (Prnd) recombinant protein immobilized on the SPR sensor chip (Q9UKY0 26-152): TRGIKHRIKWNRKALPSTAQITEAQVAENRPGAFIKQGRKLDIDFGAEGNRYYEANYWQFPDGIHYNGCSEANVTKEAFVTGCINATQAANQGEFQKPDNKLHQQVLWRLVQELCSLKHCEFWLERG

B1: Human monoclonal antibody 3D1 (antibody, human IgG1, kappa, V domains shown)
VH: EVQLVESGGGLVQPGGSLRLSCAASGFTFSDYAMSWVRQAPGKGLEWVSRISGSGGTKYYADSVKGRFTISRDNSKNTLYLQMNSLRAEDTAVYYCAKHQVYWALDVWGQGTLVTVSS
VL: DIQMTQSPSSLSASVGDRVTITCRASQSISNWLNWYQQKPGKAPKLLIYATSSLQSGVPSRFSGSGSGTDFTLTISSLQPEDFATYYCQQSYSYPWTFGQGTKVEIKR
- Kd: 308 pM
